Data on three molecules can be found in patent publication US20110237560A1 (published 2011).

Assay [1] addresses T1, Myc-human Hsp90beta (human, UniProt P08238 1-724).
T1 construct: also called myc-Hsp90beta; myc-tagged Hsp90beta; not shown: N-terminal myc tag of pCMV-3Tag2
As to the kind of experiment: anti-Flag co-immunoprecipitation from cotransfected HEK293T, western blot anti-myc. On the technique in general: In western blotting, separated proteins are transferred to a membrane and probed.

The target in assay [2] is T1, Myc-human Hsp90beta. The experiment in a line: anti-Flag co-immunoprecipitation from cotransfected HEK293T, western blot anti-myc (FIG. 2C).

T1 sequence (P08238 whole entry): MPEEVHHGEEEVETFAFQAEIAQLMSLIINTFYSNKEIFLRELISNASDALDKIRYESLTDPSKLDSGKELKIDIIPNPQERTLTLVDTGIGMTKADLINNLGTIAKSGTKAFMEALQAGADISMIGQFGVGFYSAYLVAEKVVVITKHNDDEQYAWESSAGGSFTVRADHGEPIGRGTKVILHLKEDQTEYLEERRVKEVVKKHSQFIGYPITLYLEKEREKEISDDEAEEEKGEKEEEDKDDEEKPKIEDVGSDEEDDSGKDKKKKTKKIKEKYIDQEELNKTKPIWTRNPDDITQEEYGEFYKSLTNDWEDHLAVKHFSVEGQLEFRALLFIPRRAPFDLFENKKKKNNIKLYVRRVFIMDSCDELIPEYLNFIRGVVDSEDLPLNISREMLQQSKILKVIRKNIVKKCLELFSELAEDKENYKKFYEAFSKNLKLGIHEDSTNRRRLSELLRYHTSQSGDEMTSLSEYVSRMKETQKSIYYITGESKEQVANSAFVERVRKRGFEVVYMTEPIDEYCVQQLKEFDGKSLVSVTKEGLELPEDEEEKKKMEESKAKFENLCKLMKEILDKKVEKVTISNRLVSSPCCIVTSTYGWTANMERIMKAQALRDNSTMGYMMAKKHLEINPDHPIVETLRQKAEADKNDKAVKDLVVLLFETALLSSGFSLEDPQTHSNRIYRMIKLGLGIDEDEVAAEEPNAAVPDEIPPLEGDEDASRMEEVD

B1: Flag-tagged rat APOBEC1 (enzyme, UniProt P38483 1-229, looked up)
chain: MSSETGPVAVDPTLRRRIEPHEFEVFFDPRELRKETCLLYEINWGGRHSIWRHTSQNTNKHVEVNFIEKFTTERYFCPNTRCSITWFLSWSPCGECSRAITEFLSRYPHVTLFIYIARLYHHADPRNRQGLRDLISSGVTIQIMTEQESGYCWRNFVNYSPSNEAHWPRYPHLWVRLYVLELYCIILGLPPCLNILRRKQPQLTFFTIALQSCHYQRLPPHILWATGLK
notes: also called A1; not shown: N-terminal Flag tag (annealed oligonucleotides AO1 and AO2)
For the molecule B1, the binding result with Myc-human Hsp90beta [1] is “no binding”.

B2: Flag-tagged APOBEC2 (enzyme, UniProt Q9Y235 1-224, looked up)
chain: MAQKEEAAVATEAASQNGEDLENLDDPEKLKELIELPPFEIVTGERLPANFFKFQFRNVEYSSGRNKTFLCYVVEAQGKGGQVQASRGYLEDEHAAAHAEEAFFNTILPAFDPALRYNVTWYVSSSPCAACADRIIKTLSKTKNLRLLILVGRLFMWEEPEIQAALKKLKEAGCKLRIMKPQDFEYVWQNFVEQEEGESKAFQPWEDIQENFLYYEEKLADILK
notes: also called A2; not shown: N-terminal Flag tag (annealed oligonucleotides AO1 and AO2)
Turning to B2, the binding result in the assay with Myc-human Hsp90beta [1] was “no binding”.

B3: AID-APOBEC2 chimera #1 (enzyme)
chain: MDSLLMNRRKFLYQFKNVEYSSGRNKTFLCYVVEAQGKGGQVQASRGYLEDEHAAELLFLRYISDWDLDPGRCYRVTWFTSWSPCYDCARHVADFLRGNPNLSLRIFTARLYFCEDRKAEPEGLRRLHRAGVQIAIMTFKDYFYCWNTFVENHERTFKAWEGLHENSVRLSRQLRRILLPLYEVDDLRDAFRTLGL
notes: range 60-96; Flag-tagged in the HEK293T co-immunoprecipitation; also called AID-A2 #1; not shown: its end of the chain and its l
For B3, in the assay with Myc-human Hsp90beta [2], the binding result is “no binding”.
